Results reported in PMC9929924, “Phosphorylation of the receptor protein Pex5p modulates import of proteins into peroxisomes” (Biological Chemistry, 2022).

Assays:
Assay type in all cases: physicochemical
[1] = Native MS of purified individual proteins (oligomeric state); details: Pex5p 7.5 µM, Pcs60p 5 µM; 200 mM ammonium acetate pH 6.8
Procedure: Recombinantly expressed Pex5p variants and Pcs60p protein solutions were buffer-exchanged into 200 mM ammonium acetate pH 6.8 at 4 °C using microcentrifuge gel filtration columns Bio-Spin 6 (Bio-Rad Laboratories). Protein concentration was determined spectrophotometrically using a Nanodrop 2000c (Thermo Scientific) by measuring absorption at 280 nm. Proteins were either analyzed individually or as mixture of Pex5p variant with Pcs60p at indicated concentrations to study receptor-cargo complex formation. For this, Pex5p^WT or Pex5p^2D mutant was incubated with Pcs60p for 5 min on ice. Spectra were obtained using a Synapt HDMS (Waters and MS Vision) equipped with an m/z 32,000 range quadrupole by introducing 3 µl sample with an in-house manufactured gold-coated capillary needle (Brosilicate Thin Wall with Filament Clark Capillary Glass, OD 1.0 mm, ID 0.78 mm; Harvard Apparatus). […]
Spectra were calibrated externally using cesium iodide. […] Quantification of complex abundances was performed based on area under signals using a similar approach as previously described ([Danquah et al. 2019]; [Yefremova et al. 2017]). To compare stabilities of receptor-cargo complexes for Pex5p^WT and Pex5p^2D the collisional activation was quantified by calculating center-of-mass energies (E com) based on the abundance-weighted mean charge states of the 1:1 complex for each acceleration voltage. […]

[2] = Thermal unfolding by circular dichroism and nano-differential scanning fluorimetry; details: circular dichroism thermal ramping (20-70 °C, 220 nm) and nanoDSF (0.35 mg ml^−1, 1 °C min^−1); 25 mM phosphate pH 7.5, 150 mM NaF; triplicates
Procedure: Thermal unfolding coupled to CD was performed between 20 °C and 70 °C with a measure in triplicate every 5 °C increment. Millidegree values at 220 nm were plotted against their temperature and the melting temperature calculated using a Boltzmann sigmoidal equation.
Melting temperatures were measured by Nano differential scanning fluorimetry using a Prometheus NT.48 (Nanotemper). Tryptophan intrinsic fluorescence emission was recorded at 330 and 350 nm with 30% excitation power during thermal ramping from 20 to 90 °C (1 °C min^−1). 10 μl of proteins in 25 mM phosphate buffer (pH 7.5), 150 mM NaF and at a concentration of 0.35 mg ml^−1 were loaded in nanoDSF grade standard capillaries. Samples were measured in triplicates and the calculated melting temperatures averaged. Melting temperature were calculated by the software PR.ThermControl.

[3] = Circular dichroism, folding of Pex5p variants; details: far-UV CD; 25 mM phosphate buffer pH 7.5, 150 mM NaF; 0.2 mg ml^−1
Procedure: Circular dichroism (CD) experiments were performed on a J-810 spectropolarimeter (Jasco). Proteins were dialyzed against 25 mM phosphate buffer (pH 7.5), 150 mM NaF. Far-UV spectra were recorded between 180 and 280 nm, using a 1-mm cuvette and a concentration of 0.2 mg ml^−1 protein. The machine settings were 1 nm bandwidth, 1 s response, 1 nm data pitch and 100 nm min^−1 scan speed.

B1: Pex5p^WT: Pex5p wildtype, PTS1 receptor of S. cerevisiae (protein)
chain: MDVGSCSVGNNPLAQLHKHTQQNKSLQFNQKNNGRLNESPLQGTNKPGISEAFISNVNAISQENMANMQRFINGEPLIDDKRRMEIGPSSGRLPPFSNVHSLQTSANPTQIKGVNDISHWSQEFQGSNSIQNRNADTGNSEKAWQRGSTTASSRFQYPNTMMNNYAYASMNSLSGSRLQSPAFMNQQQSGRSKEGVNEQEQQPWTDQFEKLEKEVSENLDINDEIEKEENVSEVEQNKPETVEKEEGVYGDQYQSDFQEVWDSIHKDAEEVLPSELVNDDLNLGEDYLKYLGGRVNGNIEYAFQSNNEYFNNPNAYKIGCLLMENGAKLSEAALAFEAAVKEKPDHVDAWLRLGLVQTQNEKELNGISALEECLKLDPKNLEAMKTLAISYINEGYDMSAFTMLDKWAETKYPEIWSRIKQQDDKFQKEKGFTHIDMNAHITKQFLQLANNLSTIDPEIQLCLGLLFYTKDDFDKTIDCFESALRVNPNDELMWNRLGASLANSNRSEEAIQAYHRALQLKPSFVRARYNLAVSSMNIGCFKEAAGYLLSVLSMHEVNTNNKKGDVGSLLNTYNDTVIETLKRVFIAMNRDDLLQEVKPGMDLKRFKGEFSF
modifications: left off: His6, N-terminal, state not stated
notes: Pex5p wildtype, PTS1 receptor of S. cerevisiae
oligomeric state in native MS [1]: mainly detected in a monomeric state | melting temperature [2]: approximately 46 °C | folding [3]: folded with no major structural changes
